The target in the test is IL-1 receptor (human) (UniProt P14778). Put plainly: cell-based or functional assay.

IC50, inhibition of IL-1β induced production of IL-8 in human whole blood (100 pM rhIL-1β) data for one substance are collected here from patent US20120003226A1.

Sequence of UniProt P14778 (P14778 18-569): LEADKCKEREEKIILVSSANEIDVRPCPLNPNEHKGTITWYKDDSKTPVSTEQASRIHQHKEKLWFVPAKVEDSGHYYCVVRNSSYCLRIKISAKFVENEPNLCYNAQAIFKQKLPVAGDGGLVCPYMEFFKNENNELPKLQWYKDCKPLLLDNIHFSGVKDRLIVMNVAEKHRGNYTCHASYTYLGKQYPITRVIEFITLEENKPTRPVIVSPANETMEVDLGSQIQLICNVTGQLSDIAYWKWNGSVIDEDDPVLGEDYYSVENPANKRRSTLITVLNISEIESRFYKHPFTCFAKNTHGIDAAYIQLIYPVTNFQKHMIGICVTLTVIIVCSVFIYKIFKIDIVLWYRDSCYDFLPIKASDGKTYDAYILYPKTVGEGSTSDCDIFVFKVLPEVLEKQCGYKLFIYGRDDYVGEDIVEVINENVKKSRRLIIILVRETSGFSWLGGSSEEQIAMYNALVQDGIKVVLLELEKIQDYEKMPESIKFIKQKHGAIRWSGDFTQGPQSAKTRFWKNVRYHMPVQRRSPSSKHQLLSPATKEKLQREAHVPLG

Turning to “Kineret® (anakinra) (from UniProt P18510 26-177) (ligand)”, the IC50, inhibition of IL-1β induced production of IL-8 in human whole blood (100 pM rhIL-1β) came to 53.4 pM.
